Drawing on article PMC6999906 (PLoS ONE, 2020), this text covers Km, Vmax and Ki for 2 molecules.

The test system of series [1] is O=c1ccn([C@H]2C[C@H](O)[C@@H](COP(=O)(O)O)O2)c(=O)[nH]1. As to the kind of experiment: purified protein. To be noted: FAD.
The subject of series [2] is Nc1nc2c(c(=O)[nH]1)N1CN(c3ccc(C(=O)N[C@@H](CCC(=O)O)C(=O)O)cc3)C[C@H]1CN2. As to the kind of experiment: purified protein. To be noted: FAD.
For series [3], the system named is NC(=O)C1=CN([C@@H]2O[C@H](COP(=O)(O)OP(=O)(O)OC[C@H]3O[C@@H](n4cnc5c(N)ncnc54)[C@H](OP(=O)(O)O)[C@@H]3O)[C@@H](O)[C@H]2O)C=CC1. As to the kind of experiment: purified protein. To be noted: FAD.
The target in series [4] is Mtb ThyX (thymidylate synthase ThyX) (Mycobacterium tuberculosis, UniProt P9WG57). Briefly: […]; also NADPH oxidase assay (IC50 about […]). Format: biochemical.
Mtb ThyX (thymidylate synthase ThyX), sequence (P9WG57 whole entry): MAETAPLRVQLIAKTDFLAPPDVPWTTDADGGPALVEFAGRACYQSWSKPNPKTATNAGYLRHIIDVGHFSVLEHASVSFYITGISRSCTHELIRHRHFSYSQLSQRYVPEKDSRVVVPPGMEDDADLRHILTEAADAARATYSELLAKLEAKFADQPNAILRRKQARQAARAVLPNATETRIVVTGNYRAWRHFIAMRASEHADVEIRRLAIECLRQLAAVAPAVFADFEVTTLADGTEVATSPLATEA

Turning to “Mtb ThyX (thymidylate synthase ThyX) (Mycobacterium tuberculosis H37Rv)”, the Km came out at 3.526 ± 0.68 µM in series [1], 6.467 µM in series [2] and 35.22 µM in series [3]. The figures for the Vmax in series [1], in series [2] and in series [3] were 0.00695 µmol/min/mg, 0.00228 µmol/min/mg and 0.00323 µmol/min/mg, respectively.
In series [4], `CC1=CC(=O)c2c(O)cccc2C1=O` [plumbagin, 5-hydroxy-2-methyl-1,4-naphthoquinone] returned a Ki of 8.21 µM.
